Among the data in the RNAGym collection of RNA variant scans (doi:10.7554/elife.80360) are self-cleavage values, retold here.

The labels stand for the following.
B1: HDV Ribozyme (parent)
chain: GGCCGGCAUGGUCCCAGCCUCCUCGCUGGCGCCGGCUGGGCAACAUUCCGAGGGGACCGUCCCCUCGGUAAUGGCGAAUGGGACCCA

In this series the parent is B1. The experiment in a line: self-cleavage, relative activity (ratio to wild type); higher = more cleavage; co-transcriptional.
For the variant GGCCGGCAUGGUCCCAGCCUCCUCGCUGGCGCCGGCUGGGCAACAUUCCGAGGGGACCGUCCCCUCGGUCCUGGCGAAUGGGACCCA, the self-cleavage stood at 0.762.
Turning to GGCCGGCAUGGUCCCAGCCUCCUCGCUGGCGCCGGCUCGGCAACAUUCCGAGGGGACCGCCCCCUCGGUAAUGGCGAAUGGGACCCA, the self-cleavage was found to be 0.231.
The figure for GGCCGGCAUGGUCCCAGCCUCCUCGCUGGCGCCGGCUGCGCAACAUUCCGAGGGGACCGUCCCCUCGGUGAUGGCGAAUGGGACCCA is 0.151.
As to GGCCGGCAUGGUCCCAGCCUCCUCGCUGGCGCCGGCUGGACAUCAUUCCGAGGGGACCGUCCCCUCGGUAAUGGCGAAUGGGACCCA, the self-cleavage came to 0.446.
Turning to GGCUGGCAUGGUCCCAGCCUCCUCGCUGGCGCCGGCUGGGCAACAUUCCGAGGGGACCGUCCCCUUGGUAAUGGCGAAUGGGACCCA, the self-cleavage turned out to be 0.704.
Then GGCCGGCAUGAUCCCAGCCUCCUCGCUGGCGCCGGCUGGGCAACAUUCCGAGGGGACCGUCCCCUCGGUAAUGGCGAAUGGCACCCA, with 0.0739.
Then GGGCGGCAUGGUCCCAGCCUCCUCGCUGGCGCCGGCUGGGCAACAUUCCGAGGGGACCGCCCCCUCGGUAAUGGCGAAUGGGACCCA, with 0.748; and GGCCGGCAUGGUCCCAGCCUCCUCGCUGGCGCCGGCUGGGCAGCAUUCCGAGGGGAGCGUCCCCUCGGUAAUGGCGAAUGGGACCCA, with 0.356.
On to GGCCGGCAUGGUCCCAGCCUCCUCGCUGGCGCUGGCUGGGCAACAUUCCGAGGGGACCGUCCCCUUGGUAAUGGCGAAUGGGACCCA, for which the self-cleavage is 0.774.
Then GGCCGGCAUGGUCCCAGCCUCCUCGCUGGCGCCGGCUGUGCAACAUUCCGAGGGGACCGUCCCCUCGGUAAUGGCGAAUGUGACCCA, with 0.185.
In the case of GGCCGGCAUGGUCCCAGCCUCCACGCUGGCGCCGGCUGGGCAACAUUCCGAGGGGACCUUCCCCUCGGUAAUGGCGAAUGGGACCCA, the self-cleavage came out at 1.09.
The figure for GGCCGGCCUGGUCCCGGCCUCCUCGCUGGCGCCGGCUGGGCAACAUUCCGAGGGGACCGUCCCCUCGGUAAUGGCGAAUGGGACCCA is 0.831.
The figure for GGCCGGCAUGGUCCCAGCCUCCUCGCUGGGGCCGGCUGGGCAACAUUCCGAGGGGACCGUCCCCUCGGUAAUGGCGAAUGGGACCCC is 0.122; for GGCCGGCAAGGUCCCAGCCUCCUCGCUGGCGCCGGCUGGGCAACAUUCCGAGGGGACCGUCCCCUCGGUAAAGGCGAAUGGGACCCA it is 0.712; for GACCGGCUUGGUCCCAGCCUCCUCGCUGGCGCCGGCUGGGCAACAUUCCGAGGGGACCGUCCCCUCGGUAAUGGCGAAUGGGACCCA it is 0.0432.
The figure for UGCCGGCAUGGUCCCAGCCUCCUCGCUGGCGCCGGCUGGGGAACAUUCCGAGGGGACCGUCCCCUCGGUAAUGGCGAAUGGGACCCA is 0.249.
Turning to GGCCGGCAUGGUCGCAGCCUCCUCGCUGGCGCCGGCUGGGCAACAUUCCGAGGGGACCGUCGCCUCGGUAAUGGCGAAUGGGACCCA, the self-cleavage is 0.0831.
In the case of GGCCGGCAUGGUCCCAGCCUCCUCGCUGGGGCCGGCUGGGCAACAUUCCGAGGGGACCGUCGCCUCGGUAAUGGCGAAUGGGACCCA, the self-cleavage amounted to 0.
Then GGCCGGCAUGGUCCCAGCCUCCUCGCUGGCGCCGGCUGGUCAACAUUCCGAGGGGACCGUCCGCUCGGUAAUGGCGAAUGGGACCCA, with 0.348; and GGCCGGCAUGGUCCCAGCCUCCUCGCAGGCGCCGGCUGGGCAACAUUCCGAGGGGACCGUCCCCUCGGUAAUGGCGAAUGGGUCCCA, with 0.88; and GGCCGGCAUGGUCCCAGCCUCCUCGCUGGCGCCGGCUGGGCAACAUUCCGAGGGGACCGUCCCCUCGUUAAUGGCGAAUGGGAUCCA, with 0.511.
Consider GGCCGGCAUGGUCCCAGCGUCCUCGCUGGCGCCGGCUGGGCAACAUUCCGAGGGGAGCGUCCCCUCGGUAAUGGCGAAUGGGACCCA, for which the self-cleavage worked out at 0.0739.
Then GGCCGGCAUGGUCCCAGCCUCCUCGCUGGCGCCGGCUGGGCACCAUUCCGAGGGGACAGUCCCCUCGGUAAUGGCGAAUGGGACCCA, with 0.394; and GGCCGGCAUUGUCCCAGCCUCCUCGCUGGCGCCGGCUGGGCAACAUUCCGAGGGGACCGUCCCCUCGGUAAUAGCGAAUGGGACCCA, with 0.235; and GGCCGGCAUGGUCCCAGCCUCCUCGCUGGCGCCGGCUGGGCAACUUUCCGAGGGGACCGUCCCCUCGGUAAUGGCGAAUGAGACCCA, with 0.259.
The figure for GGCCGGCAUGGUCCCAGCCUCCUCGCUGGCGCCGGCUGGGCAACAUUCCGAGGGCACUGUCCCCUCGGUAAUGGCGAAUGGGACCCA is 1.07; for GGCCGGCAUGGUCCCAGCCUGCUCGCUGUCGCCGGCUGGGCAACAUUCCGAGGGGACCGUCCCCUCGGUAAUGGCGAAUGGGACCCA it is 0.0733.
The figure for GGCCGGCAUGGUCCCAGGCUCCUCGCUGGCGCCGGCUGGGCAACAUUCCGAGGGGACCGUCCCCUCGGUAAUGGCGAAUGGCACCCA is 0.
On to GGCCGGCAUGCUCCCAGCCUCCUCGCUGGCGCCGGCUGUGCAACAUUCCGAGGGGACCGUCCCCUCGGUAAUGGCGAAUGGGACCCA, for which the self-cleavage worked out at 0.
The figure for GGCCGGCAUGGUCGCAGCCUCCUCGCUGGCGCCGGCUGGGCAACAUUCCGAGGGGACCGUCCCCUCGGUAAUGGCGAUUGGGACCCA is 0.185; for GGCCGGCAUGGUCCCAGCCUCCUCGCUGGCGCCGGCGGGGCAACAUUCCGAGGGGACCGUCCCCUCGGUAAUGGCGAAAGGGACCCA it is 0.
The figure for GGCCGGCAUAGUCCCAGCCUCCUCGCUGGCGCCGGCUGGGCAAUAUUCCGAGGGGACCGUCCCCUCGGUAAUGGCGAAUGGGACCCA is 0.463.
For UGCCGGCAUGGUCCCAGCCUCCUCGCUGGCGCCGGCUGGGCAACAUUCCGAGGGGACCGUACCCUCGGUAAUGGCGAAUGGGACCCA, the self-cleavage was found to be 0.326.
Then GGCCGGCAUGCUCCCAGCCUCCUCGCUGGCGCCGGCUGGGAAACAUUCCGAGGGGACCGUCCCCUCGGUAAUGGCGAAUGGGACCCA, with 0.185; and GGCCGGCAUGGUCCCAGCCUCCUCGCUGGCGCCGGCUGGGCAACAUUCCGAGGGGACCGUCCCCUCGGUGAUGGGGAAUGGGACCCA, with 0.219; and GGCCGGCAUGGUCCCAGCCUCCUCGCUGGCGCCGGCUGGGCAACAUUCCGAGGGGACCGUCCCCUCGGUUAUGGCGAAUGGGAACCA, with 0.969.
The figure for GGCCGGCAUGGUCCCAGCCUCCUCGCUGGCGCCGGCUGGGCAUCAUUCCGAGGGGACCGUCCCCUCGGUAAUGGGGAAUGGGACCCA is 0.0639.
Then GGCCGGCAUGGUCCCAGCCUCCUCGCUGGCGCCGGCUGGGCAACAUUCCGAGUGGACCGUGCCCUCGGUAAUGGCGAAUGGGACCCA, with 0.899; and GGCCGGCAUGGUCCCAGCCUCCUCCCUGGCGCCGGCUGGGCAACAUUUCGAGGGGACCGUCCCCUCGGUAAUGGCGAAUGGGACCCA, with 0.26; and GGCCGGCAUGGUCCCAGCCUCCUCGCUGGCGCCGGCUGGGCAACAUUCCGAGGGGACCGUCCCCUCGCUAAUGGCGAAUGUGACCCA, with 0.123.
Consider GGCCGGCAUGGUCCCAGCCUCCUCGCUGGCGCCGGCUGGGCAAUAUUCCGAGGGGACCGUCCCCUCGGUAAUGGCGGAUGGGACCCA, for which the self-cleavage turned out to be 0.923.
For GGCCGGCAUGGUCCCAGCCUCCUCGCUGGCGCCGGCAGGGCAACAUUCCGAGGGGACCGUCCCCUCGGUAAUGGCGAAUGGGAGCCA, the self-cleavage stood at 0.151.
Then GGCCGGCAUGGUCCCAGCCUCCUCGCUGGCGCCGGCUGGGCAACAUUCCGAGGGGAGCGUCCCCUCGGUGAUGGCGAAUGGGACCCA, with 0.856; and GGCCGGCAGGGUCCCAGCCUACUCGCUGGCGCCGGCUGGGCAACAUUCCGAGGGGACCGUCCCCUCGGUAAUGGCGAAUGGGACCCA, with 0.123.
The figure for GGCCGGCAUGGUCCCAGCCUCCUCUCUGGCGCCGGCUGGGCAACAUUCCAAGGGGACCGUCCCCUCGGUAAUGGCGAAUGGGACCCA is 0.151.
The figure for GGCCGGCAUGGUCCCAGCCUCCUCGCUGGCGCCGGCUGGGCUACAUUCUGAGGGGACCGUCCCCUCGGUAAUGGCGAAUGGGACCCA is 0.502.
GGCCGGCAUGGUCACAGCCUCCUCGCUGGCGCCGGCUGGGCAACAUUCCGAGGAGACCGUCCCCUCGGUAAUGGCGAAUGGGACCCA: the self-cleavage is 0.751.
Then GGCCGGCAUGGUCACAGCCUCCUCGCUGGCGCCGGCUGGGCAACAUUCCGAGGGGACCGUCCCCUCGGUAAUGGCGAGUGGGACCCA, with 0.0519; and GGCCGGCAUGGUCCCAGCCUCCUCGCUGGCGCCGGCUGUGCAACAUUCCGAGGGGAUCGUCCCCUCGGUAAUGGCGAAUGGGACCCA, with 0.831; and GGCCGGCAUGGUCCCAGCCUCCUCGCCGGCGCCGGCUGGGCAACAUUCCGAGGGGACCGUCCCCUCGGUAAUGGCGACUGGGACCCA, with 0.0594.
With GGCCGGCAUGGUCCCAGCCUCCUCGCUGGCGCCGGCUGGGCAACAUUCCGUGGGGACCGUCCCCUCGGUAAUGGCGAACGGGACCCA, the self-cleavage turned out to be 0.49.
Then GGCCGGCAUGGUCCCAGCCUCCUCGCUGGCGCCGGCUGGGCAACAUUCCGAGGGGACCGUCCCCUCGGUAAUGACGAAUGUGACCCA, with 0.12.
Then GGCUGGCAUGGUCCCAGCCUCCUCGCUGGCGCCGGCUGGGCAACAUUCCGAGGGGACCGUCCCCUCGGUAAUGGCGCAUGGGACCCA, with 0.0978.
The figure for GGCCGGCAUGGUCCCAGCCUCCUCGCUGGCGCCGGCCGGGCAACAUUCCCAGGGGACCGUCCCCUCGGUAAUGGCGAAUGGGACCCA is 1.07; for GGCCGGCAUGGUCCCAGCCUCCUCGCUGGCGCCGGCUUGGCAACAUUCCGAGGGGACCGUCCCCUCGGUAUUGGCGAAUGGGACCCA it is 0.222; for GGCCGGCUUGGUCCCAGCCUCCUCGCUGGCGCCGGCUGGGCAACAUUCCGAGGGGACCGUCCCCUCGGUAAUGGCGAAUGGGACCCC it is 0.845.
For GGCCGGCAUGGUCCCAGCCUCCUCGCUGGCGCCGGCUGGGCAACAUUCCGAGGGGACCGUCGCCUCGGUAAUGGCGAAUGAGACCCA, the self-cleavage was 0.299.
Then CCCCGGCAUGGUCCCAGCCUCCUCGCUGGCGCCGGCUGGGCAACAUUCCGAGGGGACCGUCCCCUCGGUAAUGGCGAAUGGGACCCA, with 1.06; and GGCCUGCAUGGUCCCAGCCACCUCGCUGGCGCCGGCUGGGCAACAUUCCGAGGGGACCGUCCCCUCGGUAAUGGCGAAUGGGACCCA, with 0; and GGCCGGCAUGGUCCCGGCCUCCUCGCUGGCGCCGGCUGGGCAACAUUCCGAGGGGACCGUCCCCGCGGUAAUGGCGAAUGGGACCCA, with 1.01.
The figure for GGCCGGCAUGGUCCCAGCCUCCUCGCUGGCGCCGCCUGGGCAACAUUCCGAGGGGACCGUCCCCUCGGUAAUGGCGAAGGGGACCCA is 0.214; for GGCCGGCAUGGUCCCAGCCUCCCCGCUGGCGCCGGCUGGGCAACAUUCCGAGGGGACCGUCCCCUCGGUAAUGGCGAAUGGCACCCA it is 0.465; for GGCCGGCAUGGUGCCAGCCUCCUCGCUGGCGCCGGCUGGGCAACAUUCCGAGGGGACCGUCUCCUCGGUAAUGGCGAAUGGGACCCA it is 0.0369.
The figure for GGCCGGCAUGGUCCCAGCCUCCUCACUGGCGCCGGCUCGGCAACAUUCCGAGGGGACCGUCCCCUCGGUAAUGGCGAAUGGGACCCA is 0.0791.
